The target in assay [1] is T1, human ghrelin receptor (GHSR) (Homo sapiens, UniProt Q92847, C146S/C304S).
T1 construct: integrin α5 fragment (N); polyhistidine tag (C); made in house; host or cells: E. coli BL21(DE3)
In words: Bimane fluorescence assay on purified ghrelin receptor in nanodiscs. Format: biochemical. The note with it: for conformational change in the receptor: in presence of JMV1843. From the text: Another assay that can be used to analyse conformational changes associated with GPCR activation and/or to identify G protein peptidomimetics that are capable of stabilizing a GPCR in an active conformational state is the bimane fluorescence assay or bimane assay. This assay works through labelling of a cysteine residue in the lower part of the TM6 of a GPCR with a bimane-fluorophore (monobromobimane (MB)). Binding of an agonist to the GPCR causes a conformational change and outward movement of TM6 that places bimane in a more solved-exposed position, which will alter its maximum emission wavelength. In particular, increasing concentrations of agonist result in a concentration-dependent red-shift of the maximum emission wavelength (λmax) of the bimane-fluorophore probe. In the presence of a G protein or an active state stabilizing G protein peptidomimetic λmax may increase further. For example, a bimane labelled ghrelin receptor (such as a cysmin mutant (i.e. mutant with minimal cysteines) of human ghrelin receptor (also referred to herein as growth hormone secretagogue receptor (GHSR) (e.g. the mutant as described in Damian et al. (2021) wherein monobromobimane (MB) fluorescent probe is attached to Cys^255) and ghrelin receptor agonist JMV1843 may be used.
The bimane fluorescence assays on the ghrelin receptor were performed as described in Damian et al. (2021. Nat. Commun. 12:1-15). Briefly, E. coli bacteria (BL21(DE3)) were transformed with a vector encoding the human ghrelin receptor with an integrin α5 fragment at the N-terminus and a polyhistidine tag at the C-terminus. The receptors were then purified and reconstituted into lipidated nanodiscs. The monobromobimane labeling was performed by incubating the receptors, with a unique reactive cysteine at position 255, during 16 h in the dark at 4° C. and in the presence of 0.1 mM tris(2-carboxyethyl)phosphine (TCEO). The reaction was terminated with 5 mM L-cysteine and unreacted monobromobimane was removed using a Zeba™ Spin desalting column.
For the fluorescence assay, the labeled receptor was incubated during 2 h at 20° C. (0.2 μM final concentration), in the absence or presence of the full agonist JMV1843 (20 μM) and in the absence or presence of either the peptidomimetics at varying molar ratios or the purified Gαqβ1γ2 heterotrimer, at a 1:5 receptor-to-G protein molar ratio. Afterwards, the fluorescence experiments were performed on a Horiba Fluoromax-4 TCSP spectrofluorimeter. For each scan, the excitation wavelength (λexc) was set at 380 nm and emission was collected between 440 nm and 520 nm.
The bimane assay is used on GPCRs to detect conformational changes associated with receptor activation. This assay functions through the labelling of a cysteine, which is one of the least frequently occurring amino acids in proteins. Additionally, the majority of the extracellular cysteines form disulfide bonds, which, together with the transmembrane cysteines, are inert to thiol-reactive reagents. Additionally, some of the intracellular cysteines in the C-terminal tail may carry post-translational modifications which reduces the number of reactive cysteines in the receptor (Tian et al. 2017. Chem. Rev. 117:186-245). For GHSR, the remaining reactive cysteine residues C146 (ICL2) and C304 (extracellular end of TM7) were replaced by serines (cysmin mutant, i.e. mutant with minimal cysteines), to allow the monobromobimane (MB) fluorescent probe to be specifically attached to Cys255 in the lower part of TM6 (FIG. 5a) (Damian et al. 2021). In this assay, bimane is chosen because of its small size and sensitivity to the polarity of its environment (Yao et al. 2006. Nat Chem. Biol. 2:417-422). Binding of a ligand to the receptor, causes a conformational change and outward movement of TM6 that places bimane in a more solvent-exposed position, which alters its maximum emission wavelength. […]

Assay [2] has as its target T2, full-length human muscarinic 1 receptor with a FLAG tag at the N-terminus (human, UniProt P11229 1-460).
T2 sequence: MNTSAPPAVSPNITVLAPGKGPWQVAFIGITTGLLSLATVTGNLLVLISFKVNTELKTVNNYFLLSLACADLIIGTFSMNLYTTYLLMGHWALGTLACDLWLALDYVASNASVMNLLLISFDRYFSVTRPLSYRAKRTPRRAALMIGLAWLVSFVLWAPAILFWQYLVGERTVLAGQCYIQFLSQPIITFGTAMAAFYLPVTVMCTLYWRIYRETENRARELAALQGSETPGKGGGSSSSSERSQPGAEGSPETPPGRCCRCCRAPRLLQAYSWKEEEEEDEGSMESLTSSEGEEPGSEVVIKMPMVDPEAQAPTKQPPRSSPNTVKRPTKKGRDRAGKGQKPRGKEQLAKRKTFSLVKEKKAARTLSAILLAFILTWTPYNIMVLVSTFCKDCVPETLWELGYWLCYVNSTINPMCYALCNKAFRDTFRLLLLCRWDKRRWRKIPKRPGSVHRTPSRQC
In words: cell-based or functional assay.

For assay [3], the target named is ghrelin receptor overexpressed on HEK293 cells (UniProt Q92847 1-366, limits assumed). Kind of assay: cell-based or functional assay.

Positions of bridges follow the written chain, without caps; N, C: chain ends. Non-standard residues stand in square brackets, D forms with d. Residues, ends and D or L forms follow the SMILES beside them. Triazole bridges read from a SMILES are 1,4-linked. Lys(N3) = [N-]=[N+]=NCCCC[C@H](N)C(=O)O; Cha = N[C@@H](CC1CCCCC1)C(=O)O; Pra = C#CC[C@H](N)C(=O)O

ghrelin receptor overexpressed on HEK293 cells, sequence (Q92847 whole entry): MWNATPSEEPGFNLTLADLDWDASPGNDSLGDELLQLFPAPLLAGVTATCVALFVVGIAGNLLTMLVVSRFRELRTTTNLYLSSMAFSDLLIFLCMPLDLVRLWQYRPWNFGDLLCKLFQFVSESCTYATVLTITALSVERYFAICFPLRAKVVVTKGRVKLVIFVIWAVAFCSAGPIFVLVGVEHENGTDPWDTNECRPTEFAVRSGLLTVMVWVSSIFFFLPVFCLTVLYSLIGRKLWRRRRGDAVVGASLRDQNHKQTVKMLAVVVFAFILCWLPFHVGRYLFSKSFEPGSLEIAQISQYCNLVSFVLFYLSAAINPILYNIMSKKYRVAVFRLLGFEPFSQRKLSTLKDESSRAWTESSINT
T1 sequence (Q92847 whole entry C146S/C304S, the tested form may be a part): as the sequence (Q92847 whole entry) above, with C146S, C304S counted along it

Take `CC[C@H](C)[C@H](NC(=O)[C@@H](NC(=O)[C@H](CC(=O)O)NC(=O)[C@H](CCCCN)NC(=O)[C@@H](NC(=O)[C@H](C)NC(=O)[C@H](C)NC(=O)[C@H](Cc1ccccc1)NC(C)=O)C(C)C)[C@@H](C)O)C(=O)N[C@@H](CC(C)C)C(=O)N[C@@H](CCC(N)=O)C(=O)N[C@@H](CC(C)C)C(=O)N[C@@H](CC(N)=O)C(=O)N[C@@H](CC(C)C)C(=O)N[C@@H](CCCCN)C(=O)N[C@@H](CCC(=O)O)C(=O)N[C@@H](Cc1ccc(O)cc1)C(=O)N[C@@H](CC(N)=O)C(=O)N[C@@H](CC1CCCCC1)C(=O)N[C@H](C(=O)O)C(C)C` [SBL-GQ-03] (Ac-FAAVKDTILQLNLKEYN[Cha]V-OH): the “conformational change in the receptor” value in assay [1] (bimane labeled GHSR) is listed as “not able to induce a conformational change”. As for `CC[C@H](C)[C@H](NC(=O)[C@@H]1CCCCn2cc(nn2)C[C@H](NC(=O)[C@H](C)NC(=O)[C@H](Cc2ccccc2)NC(=O)[C@H](CCCCN)NC(=O)[C@H](CCCCN)NC(=O)[C@H](CCCCN)NC(C)=O)C(=O)N[C@@H](C(C)C)C(=O)N[C@@H](CCCCN)C(=O)N[C@@H](CC(=O)O)C(=O)N1)C(=O)N[C@@H](CC(C)C)C(=O)N[C@@H](CCC(N)=O)C(=O)N[C@@H](CC(C)C)C(=O)N[C@@H](CC(N)=O)C(=O)N[C@@H](CC(C)C)C(=O)N[C@@H](CCCCN)C(=O)N[C@@H](CCC(=O)O)C(=O)N[C@@H](Cc1ccc(O)cc1)C(=O)N[C@@H](CC(N)=O)C(=O)N[C@@H](CC(C)C)C(=O)N[C@H](C(=O)O)C(C)C` [SBL-GQ-05] (Ac-KKKFA[Pra]VKD[Lys(N3)]ILQLNLKEYNLV-OH; triazole 6-10), in assay [1] (highest peptide concentrations (GHSR:peptide 1:50, 1:100), with JMV1843, read-out: effect normalized to the maximal effect of the Gq protein), the Emax is roughly 90%.

For “Gq protein: purified Gαqβ1γ2 heterotrimer used as reference in the bimane assay”, the “maximum emission wavelength of bimane” value in assay [1] (bimane labeled GHSR, in presence of full agonist JMV1843 (20 μM)) is recorded as roughly 480.5 nm. Turning to `CC(C)(N)C(=O)N[C@H](Cc1c[nH]c2ccccc12)C(=O)N[C@H](Cc1c[nH]c2ccccc12)NC=O` [JMV1843, reference compound], the “maximum emission wavelength of bimane” value in assay [1] (agonist JMV1843 alone, in the absence of the Gq protein) is given as roughly 476 nm. In the case of Ac-FAAVKDTILQLNLKEYNLV-OH [SBL-GQ-01], the “conformational change in the receptor” value in assay [1] (bimane labeled GHSR) is “not able to induce a conformational change”.

B1: SBL-GQ-08 (peptide)
peptide: Ac-KKKFNDCKDIILQMNLREYNLV-OH
For the molecule B1, in assay [2], the “IC50 (µM) of the agonist acetylcholine chloride for the M1 receptor in the presence of the peptidomimetic, RLA” value (“IC50 (µM)” for short) was determined as 413 µM and the “Shift (IC50 ratio without/with peptidomimetic), RLA” value amounted to 2.

B2: SBL-GQ-14 (peptide)
peptide: H-RRRRFA[Pra]VKD[Lys(N3)]ILQLNLKEYNLV-OH
modifications: triazole 7-11
Take B2: in assay [3], the “EC50 (M) of the MK0677 agonist, IP-One Gq assay, peptidomimetic at 10 µM, n = 1” value was 6.96e-10 M; the “EC50 (M) of the MK0677 agonist, IP-One Gq assay, peptidomimetic at 10 µM, n = 2” value was 1.01e-10 M; the “EC50 (M) of the MK0677 agonist, IP-One Gq assay, peptidomimetic at 10 µM, n = 3” value was 1.87e-10 M.

B3: SBL-GQ-10 (peptide)
peptide: Ac-KKKFNDCKDIILQMNLREYN[Cha]V-OH
SMILES: CC[C@H](C)[C@H](NC(=O)[C@H](CC(=O)O)NC(=O)[C@H](CCCCN)NC(=O)[C@H](CS)NC(=O)[C@H](CC(=O)O)NC(=O)[C@H](CC(N)=O)NC(=O)[C@H](Cc1ccccc1)NC(=O)[C@H](CCCCN)NC(=O)[C@H](CCCCN)NC(=O)[C@H](CCCCN)NC(C)=O)C(=O)N[C@H](C(=O)N[C@@H](CC(C)C)C(=O)N[C@@H](CCC(N)=O)C(=O)N[C@@H](CCSC)C(=O)N[C@@H](CC(N)=O)C(=O)N[C@@H](CC(C)C)C(=O)N[C@@H](CCCNC(=N)N)C(=O)N[C@@H](CCC(=O)O)C(=O)N[C@@H](Cc1ccc(O)cc1)C(=O)N[C@@H](CC(N)=O)C(=O)N[C@@H](CC1CCCCC1)C(=O)N[C@H](C(=O)O)C(C)C)[C@@H](C)CC
As for B3, in assay [2], the “IC50 (µM)” value came out at 409 µM and the “Shift (IC50 ratio without/with peptidomimetic), RLA” value was 2.

B4: SBL-GQ-13 (peptide)
peptide: H-KKKFA[Pra]VKD[Lys(N3)]ILQLNLKEYNLV-OH
modifications: triazole 6-10
For the molecule B4, in assay [3], the “EC50 (M) of the MK0677 agonist, IP-One Gq assay, peptidomimetic at 10 µM, n = 1” value came to 4.42e-10 M; the “EC50 (M) of the MK0677 agonist, IP-One Gq assay, peptidomimetic at 10 µM, n = 2” value was 1.01e-10 M; the “EC50 (M) of the MK0677 agonist, IP-One Gq assay, peptidomimetic at 10 µM, n = 3” value was determined as 1.31e-10 M.

B5: SBL-GQ-02 (peptide)
peptide: Ac-KKKFAAVKDTILQLNLKEYNLV-OH
As for B5, in assay [2], the “IC50 (µM)” value came out at 474 µM and the “Shift (IC50 ratio without/with peptidomimetic), RLA” value was determined as 2.
